Biological target: anti-EGFR antibody (Cetuximab)
Experiment: cell-based or functional assay

Substance: CD16a, exogenously expressed on iNK cells
- cytotoxic activity (ADCC activity) against A549 cells expressing EGFR, LDH assay, 4 hr co-culture in the presence of Cetuximab (fold against control iNK cells): 2

Source: US20250041418A1
